Tested on: Escherichia coli TOP10
Assay: shrunken log2 fold change of peptide-encoding DNA abundance (4.5 h post-induction vs induction); higher = less antimicrobial activity (less host growth inhibition)
Conditions: time post-induction: 4.5 h; library: site-saturation at positions 5, 18, 19, 20
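Note: peptides expressed intracellularly from a pBAD plasmid library in pooled LB shake-flask culture, induced with 0.3% L-arabinose, DNA abundance read by NGS, three biological replicates, DESeq2 with apeglm shrinkage.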

Sequence	shrunken log2 fold change
RRIRLRPPRLPRPRPRPQNDPRP	-0.271
RRIRGRPPRLPRPRPRPSNIPRP	1.1
RRIRARPPRLPRPRPRPGIAPRP	0.331
RRIRRRPPRLPRPRPRPIMEPRP	0.161
RRIRHRPPRLPRPRPRPMHLPRP	0.0317
RRIRMRPPRLPRPRPRPEATPRP	4.04
RRIRCRPPRLPRPRPRPTQSPRP	0.565
RRIRGRPPRLPRPRPRPLLGPRP	0.833
RRIRCRPPRLPRPRPRPASIPRP	-0.612
RRIRHRPPRLPRPRPRPVGIPRP	-0.294
RRIRQRPPRLPRPRPRPFAQPRP	-0.0906
RRIRWRPPRLPRPRPRPVVPPRP	0.242
RRIRMRPPRLPRPRPRPYQHPRP	0.0551
RRIRTRPPRLPRPRPRPCYIPRP	-0.226
RRIRNRPPRLPRPRPRPKFPPRP	-0.0759
RRIRQRPPRLPRPRPRPLQKPRP	-0.0062
RRIRTRPPRLPRPRPRPYVWPRP	-0.131
RRIRCRPPRLPRPRPRPTCAPRP	0.178
RRIRQRPPRLPRPRPRPCYIPRP	-0.191
RRIRWRPPRLPRPRPRPKCSPRP	0.0308
RRIRFRPPRLPRPRPRPYIFPRP	-0.829
RRIRLRPPRLPRPRPRPTDYPRP	-0.286
RRIRCRPPRLPRPRPRPHWKPRP	-0.126
RRIRRRPPRLPRPRPRPTNCPRP	-0.197
RRIRARPPRLPRPRPRPLARPRP	0.81

Sequence	shrunken log2 fold change
RRIRNRPPRLPRPRPRPTKFPRP	-0.607
RRIRQRPPRLPRPRPRPYIAPRP	0.0259
RRIRMRPPRLPRPRPRPSPCPRP	0.18
RRIRSRPPRLPRPRPRPRLGPRP	0.468
RRIRFRPPRLPRPRPRPHESPRP	-0.0515
RRIRPRPPRLPRPRPRPNLTPRP	0.0262
RRIRPRPPRLPRPRPRPSFRPRP	-0.142
RRIRVRPPRLPRPRPRPNRWPRP	-0.0283
RRIRQRPPRLPRPRPRPGDYPRP	-0.17
RRIRQRPPRLPRPRPRPMHHPRP	-0.288
RRIRSRPPRLPRPRPRPGMMPRP	0.227
RRIRHRPPRLPRPRPRPPKQPRP	-0.00419
RRIRIRPPRLPRPRPRPSRDPRP	-0.0607
RRIRMRPPRLPRPRPRPMKSPRP	0.0897
RRIRSRPPRLPRPRPRPCLCPRP	-1.28
RRIRSRPPRLPRPRPRPVGLPRP	0.107
RRIRWRPPRLPRPRPRPVVIPRP	-0.101
RRIRRRPPRLPRPRPRPMFLPRP	0.0789
RRIRSRPPRLPRPRPRPPDSPRP	0.322
RRIRRRPPRLPRPRPRPCSPPRP	-0.125
RRIRPRPPRLPRPRPRPRSPPRP	0.592
RRIRARPPRLPRPRPRPGQYPRP	0.0253
RRIRPRPPRLPRPRPRPTQCPRP	-0.194
RRIRVRPPRLPRPRPRPNQLPRP	-0.188
RRIRRRPPRLPRPRPRPEEDPRP	-0.0235

Sequence	shrunken log2 fold change
RRIRARPPRLPRPRPRPCRHPRP	-0.355
RRIRWRPPRLPRPRPRPKYAPRP	-0.0417
RRIRWRPPRLPRPRPRPKFCPRP	-0.116
RRIRTRPPRLPRPRPRPHEHPRP	-0.0451
RRIRERPPRLPRPRPRPSKLPRP	-1.06
RRIRRRPPRLPRPRPRPDITPRP	0.303
RRIRMRPPRLPRPRPRPEFDPRP	2.44
RRIRHRPPRLPRPRPRPWYMPRP	-0.324
RRIRKRPPRLPRPRPRPCTHPRP	-0.14
RRIRIRPPRLPRPRPRPQCVPRP	-0.0555
RRIRVRPPRLPRPRPRPMIYPRP	-0.38
RRIRTRPPRLPRPRPRPRVWPRP	0.382
RRIRIRPPRLPRPRPRPFWYPRP	0.00745
RRIRERPPRLPRPRPRPQMTPRP	-0.312
RRIRPRPPRLPRPRPRPSHVPRP	-0.544
RRIRFRPPRLPRPRPRPEHTPRP	-0.213
RRIRGRPPRLPRPRPRPRLVPRP	0.725
RRIRRRPPRLPRPRPRPLCIPRP	-0.119
RRIRLRPPRLPRPRPRPMFRPRP	-0.162
RRIRRRPPRLPRPRPRPGQTPRP	0.0182
RRIRYRPPRLPRPRPRPALPPRP	-0.0414
RRIRMRPPRLPRPRPRPQMNPRP	-0.253
RRIRKRPPRLPRPRPRPQDVPRP	-0.0018
RRIRMRPPRLPRPRPRPRFDPRP	0.364
RRIRMRPPRLPRPRPRPILIPRP	0.0587

Sequence	shrunken log2 fold change
RRIRKRPPRLPRPRPRPWISPRP	0.0313
RRIRGRPPRLPRPRPRPLNCPRP	-0.0116
RRIRERPPRLPRPRPRPWYKPRP	-0.0738
RRIRPRPPRLPRPRPRPSHFPRP	-0.399
RRIRTRPPRLPRPRPRPEPHPRP	0.0668
RRIRQRPPRLPRPRPRPHASPRP	-0.00783
RRIRTRPPRLPRPRPRPENPPRP	0.261
RRIRVRPPRLPRPRPRPFNAPRP	-0.563
RRIRCRPPRLPRPRPRPKQPPRP	0.595
RRIRGRPPRLPRPRPRPSYDPRP	-0.0196
RRIRRRPPRLPRPRPRPIDAPRP	0.227
RRIRHRPPRLPRPRPRPQLHPRP	-0.169
RRIRPRPPRLPRPRPRPQAMPRP	0.132
RRIRGRPPRLPRPRPRPNKWPRP	0.0346
RRIRYRPPRLPRPRPRPMIPPRP	-0.727
RRIRSRPPRLPRPRPRPMKPPRP	-0.0309
RRIRCRPPRLPRPRPRPRTVPRP	0.0809
RRIRFRPPRLPRPRPRPVKQPRP	-0.0303
RRIRKRPPRLPRPRPRPYLKPRP	-0.525
RRIRQRPPRLPRPRPRPGLCPRP	-0.0449
RRIRFRPPRLPRPRPRPYKPPRP	0.108
RRIRPRPPRLPRPRPRPGACPRP	0.35
RRIRERPPRLPRPRPRPYTKPRP	-0.277
RRIRYRPPRLPRPRPRPGTPPRP	1.16
RRIRGRPPRLPRPRPRPIGNPRP	-0.149

Sequence	shrunken log2 fold change
RRIRKRPPRLPRPRPRPRKLPRP	0.0707
RRIRWRPPRLPRPRPRPRKGPRP	0.612
RRIRGRPPRLPRPRPRPWVMPRP	0.0476
RRIRERPPRLPRPRPRPVWVPRP	0.0145
RRIRNRPPRLPRPRPRPHMPPRP	-0.0765
RRIRNRPPRLPRPRPRPYQYPRP	0.0162
RRIRQRPPRLPRPRPRPMQFPRP	0.0624
RRIRTRPPRLPRPRPRPNPSPRP	-0.128
RRIRMRPPRLPRPRPRPSQCPRP	-0.112
RRIRNRPPRLPRPRPRPMMYPRP	0.025
RRIRTRPPRLPRPRPRPYWMPRP	-0.707
RRIRLRPPRLPRPRPRPVNRPRP	0.199
RRIRARPPRLPRPRPRPCSHPRP	0.0574
RRIRDRPPRLPRPRPRPHHDPRP	-0.336
RRIRDRPPRLPRPRPRPNRIPRP	-0.152
RRIRYRPPRLPRPRPRPNDTPRP	-0.921
RRIRKRPPRLPRPRPRPVLSPRP	0.3
RRIRKRPPRLPRPRPRPQAWPRP	0.314
RRIRWRPPRLPRPRPRPKERPRP	0.0355
RRIRNRPPRLPRPRPRPEFQPRP	-0.00325
RRIRARPPRLPRPRPRPVEDPRP	0.0532
RRIRMRPPRLPRPRPRPKFCPRP	0.0393
RRIRWRPPRLPRPRPRPEALPRP	0.174
RRIRQRPPRLPRPRPRPGCVPRP	0.269
RRIRQRPPRLPRPRPRPQVTPRP	-0.00931
